# Measurements taken from patent US20230143604A1, “QW DOSING OF GIP RECEPTOR AGONIST PEPTIDE COMPOUNDS AND USES THEREOF” (TAKEDA PHARMACEUTICAL COMPANY LIMITED, priority 2020, published 2023).
# Starred links: 1 amine or outer side, 2 acyl side, 3 side chain; linkers in the order of their positions; H or OH if unused. Non-standard residues stand in square brackets, D forms with d. Groups on a side chain read outwards from the residue. No end group written: not given here. *: point of attachment. C18 diacid = O=C(O)CCCCCCCCCCCCCCCCC(=O)*; C17 diacid = O=C(O)CCCCCCCCCCCCCCCC(=O)*; γGlu = O=C(O)[C@H](CCC(=O)[*:2])N[*:1]; NMeY = CN[C@@H](Cc1ccc(O)cc1)C(=O)O; Stearoyl = CCCCCCCCCCCCCCCCCC(=O)*; AEEA = NCCOCCOCC(=O)O; Aib = CC(C)(N)C(=O)O
# T1: full-length human GIPR with an N-terminal FLAG tag, overexpressed on HEK-293T cells (human, UniProt P48546 22-466)
# T1 sequence (looked up): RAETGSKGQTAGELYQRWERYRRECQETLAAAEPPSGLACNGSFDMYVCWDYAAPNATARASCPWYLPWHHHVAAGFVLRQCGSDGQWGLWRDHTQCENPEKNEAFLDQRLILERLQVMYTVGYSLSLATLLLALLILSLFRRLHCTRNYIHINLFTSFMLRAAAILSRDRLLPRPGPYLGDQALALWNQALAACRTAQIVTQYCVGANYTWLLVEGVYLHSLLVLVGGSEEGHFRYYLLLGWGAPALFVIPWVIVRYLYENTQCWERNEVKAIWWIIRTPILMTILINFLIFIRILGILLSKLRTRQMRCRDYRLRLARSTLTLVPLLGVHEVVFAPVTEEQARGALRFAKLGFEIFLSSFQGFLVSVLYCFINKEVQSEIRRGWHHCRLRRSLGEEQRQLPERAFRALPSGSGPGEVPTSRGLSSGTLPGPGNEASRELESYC
# B1: Compound No. 171 (peptide)
# peptide: H-Y[Aib]EGTFISDYSI[Aib]LDKAK([AEEA-AEEA-γGlu-C18 diacid])QADFVNWLLAQRG-OH
# SMILES: CC[C@H](C)[C@H](NC(=O)[C@H](Cc1ccccc1)NC(=O)[C@@H](NC(=O)CNC(=O)[C@H](CCC(=O)O)NC(=O)C(C)(C)NC(=O)[C@@H](N)Cc1ccc(O)cc1)[C@@H](C)O)C(=O)N[C@@H](CO)C(=O)N[C@@H](CC(=O)O)C(=O)N[C@@H](Cc1ccc(O)cc1)C(=O)N[C@@H](CO)C(=O)N[C@H](C(=O)NC(C)(C)C(=O)N[C@@H](CC(C)C)C(=O)N[C@@H](CC(=O)O)C(=O)N[C@@H](CCCCN)C(=O)N[C@@H](C)C(=O)N[C@@H](CCCCNC(=O)COCCOCCNC(=O)COCCOCCNC(=O)CC[C@H](NC(=O)CCCCCCCCCCCCCCCCC(=O)O)C(=O)O)C(=O)N[C@@H](CCC(N)=O)C(=O)N[C@@H](C)C(=O)N[C@@H](CC(=O)O)C(=O)N[C@@H](Cc1ccccc1)C(=O)N[C@H](C(=O)N[C@@H](CC(N)=O)C(=O)N[C@@H](Cc1c[nH]c2ccccc12)C(=O)N[C@@H](CC(C)C)C(=O)N[C@@H](CC(C)C)C(=O)N[C@@H](C)C(=O)N[C@@H](CCC(N)=O)C(=O)N[C@@H](CCCNC(=N)N)C(=O)NCC(=O)O)C(C)C)[C@@H](C)CC
# Biological target: T1, full-length human GIPR with an …
# Experiment: cell-based or functional assay
row,Binder,"Human GIPR cAMP EC50, HEK293T [nM]"
1,[NMeY][Aib]EGTFISDYSIALDR[Aib]AQ[Aib]K([AEEA-AEEA-γGlu-γGlu-Stearoyl])FVNWLLAQKG-OH [Compound No. 203],0.0013
2,[NMeY]GEGTFISDYSI[Aib]LDR[Aib]AQ[Aib]K([AEEA-AEEA-γGlu-γGlu-C18 diacid])FVNWLLAQRG-OH [Compound No. 205],0.0008
3,[NMeY][Aib]EGTFISDYSI[Aib]LDR[Aib]AQ[Aib]K([G5-γGlu-γGlu-C18 diacid])FVNWLLAQRG-OH [Compound No. 210],0.0003
4,[NMeY][Aib]EGTFISDYSI[Aib]LDR[Aib]AQ[Aib]K([AEEA-AEEA-γGlu-C18 diacid])FVNWLLAQRG-OH [Compound No. 208],0.0003
5,[NMeY][Aib]EGTFISDYSIALDR[Aib]HQ[Aib]NFVNWK([AEEA-AEEA-γGlu-C18 diacid])LAQR-NH2 [Compound No. 186],0.0003
6,B1,0.0006
7,[NMeY][Aib]EGTFISDYSIAK([AEEA-AEEA-γGlu-γGlu-C17 diacid])DR[Aib]AQ[Aib]NFVNWLLAQS-OH [Compound No. 192],0.0002
8,H-Y[Aib]EGTFISDYSIALDRAAQ[Aib]K([AEEA-AEEA-γGlu-γGlu-C18 diacid])FVEWLLAQRG-OH [Compound No. 206],0.0004
9,Me-Y[Aib]EGTFISDYSIALDKAAQ[Aib]K([AEEA-AEEA-γGlu-γGlu-C18 diacid])FVEWLLAQRG-OH [Compound No. 174],0.0004
10,Me-Y[Aib]EGTFISDYSIALDKAAQ[Aib]K([AEEA-AEEA-γGlu-γGlu-C18 diacid])FVNWLLAQRG-OH [Compound No. 176],0.0003
11,YXEGTFISDYSIAXDRIAQRNFVEWLLAQSPSSGAPPPS (N-terminal Me (Me-Tyr 1); Aib at 2; Km at 14 = Lys(G5-C18DA); C-terminus OH) [Compound No. 179],0.0008
12,Me-Y[Aib]EGTFISDYSIALDKIAQ[Aib]K([AEEA-AEEA-γGlu-γGlu-C18 diacid])FVNWLLAQRG-OH [Compound No. 175],0.0007
13,YXEGTFISDYSIAXDRIAQRNFVEWLLAQSPG (N-terminal Me (Me-Tyr 1); Aib at 2; Km at 14 = Lys(G5-C18DA); C-terminus OH) [Compound No. 180],0.0009
14,Me-Y[Aib]EGTFISDYSIALDKIAQ[Aib]K([AEEA-AEEA-γGlu-γGlu-C18 diacid])FVEWLLAQRG-OH [Compound No. 173],0.0003

# Biological target: full-length human GLP-1R with an N-terminal FLAG tag, overexpressed on HEK-293T cells (human, UniProt P43220 24-463)
# Experiment: cell-based or functional assay
row,Binder,"Human GLP1R cAMP EC50, HEK293T [nM]"
1,[NMeY][Aib]EGTFISDYSIALDR[Aib]AQ[Aib]K([AEEA-AEEA-γGlu-γGlu-Stearoyl])FVNWLLAQKG-OH [Compound No. 203],4.17
2,[NMeY]GEGTFISDYSI[Aib]LDR[Aib]AQ[Aib]K([AEEA-AEEA-γGlu-γGlu-C18 diacid])FVNWLLAQRG-OH [Compound No. 205],33.1
3,[NMeY][Aib]EGTFISDYSI[Aib]LDR[Aib]AQ[Aib]K([G5-γGlu-γGlu-C18 diacid])FVNWLLAQRG-OH [Compound No. 210],10.7
4,[NMeY][Aib]EGTFISDYSI[Aib]LDR[Aib]AQ[Aib]K([AEEA-AEEA-γGlu-C18 diacid])FVNWLLAQRG-OH [Compound No. 208],9.33
5,[NMeY][Aib]EGTFISDYSIALDR[Aib]HQ[Aib]NFVNWK([AEEA-AEEA-γGlu-C18 diacid])LAQR-NH2 [Compound No. 186],1000
6,B1,83.2
7,[NMeY][Aib]EGTFISDYSIAK([AEEA-AEEA-γGlu-γGlu-C17 diacid])DR[Aib]AQ[Aib]NFVNWLLAQS-OH [Compound No. 192],178
8,H-Y[Aib]EGTFISDYSIALDRAAQ[Aib]K([AEEA-AEEA-γGlu-γGlu-C18 diacid])FVEWLLAQRG-OH [Compound No. 206],26.3
9,Me-Y[Aib]EGTFISDYSIALDKAAQ[Aib]K([AEEA-AEEA-γGlu-γGlu-C18 diacid])FVEWLLAQRG-OH [Compound No. 174],47.9
10,Me-Y[Aib]EGTFISDYSIALDKAAQ[Aib]K([AEEA-AEEA-γGlu-γGlu-C18 diacid])FVNWLLAQRG-OH [Compound No. 176],40.7
11,YXEGTFISDYSIAXDRIAQRNFVEWLLAQSPSSGAPPPS (N-terminal Me (Me-Tyr 1); Aib at 2; Km at 14 = Lys(G5-C18DA); C-terminus OH) [Compound No. 179],2.88
12,Me-Y[Aib]EGTFISDYSIALDKIAQ[Aib]K([AEEA-AEEA-γGlu-γGlu-C18 diacid])FVNWLLAQRG-OH [Compound No. 175],58.9
13,YXEGTFISDYSIAXDRIAQRNFVEWLLAQSPG (N-terminal Me (Me-Tyr 1); Aib at 2; Km at 14 = Lys(G5-C18DA); C-terminus OH) [Compound No. 180],5.75
14,Me-Y[Aib]EGTFISDYSIALDKIAQ[Aib]K([AEEA-AEEA-γGlu-γGlu-C18 diacid])FVEWLLAQRG-OH [Compound No. 173],105
